Measurements reported in paper PMC9195068, “The action of Con-ikot-ikot toxin on single AMPA-type glutamate receptors” (The Journal of General Physiology, 2022).

Molecular target: the molecule itself
Assay: non-reducing SDS-PAGE

B1: Con-ikot-ikot toxin (natural protein)
chain: SGPADCCRMKECCTDRVNECLQRYSGREDKFVSFCYQEATVTCGSFNEIVGCCYGYQMCMIRVVKPNSLSGAHEACKTVSCGNPCA
notes: also called CII; CII toxin
  stoichiometry N: 2
